For test [1], the target named is T1, biotinylated CRH (human and mouse, not fully specified; biotinylated, position not stated).
T1 construct: also called Biotin-CRH; biotin-labeled CRH
T1 peptide: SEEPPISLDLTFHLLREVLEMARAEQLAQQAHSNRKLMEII
The experiment in a line: Octet BLI, biotinylated CRH on SA sensor. The protocol:
Octet® Red 96e was used for affinity measurement. Octet® running buffer was prepared by diluting kinetics buffer 10× (Fortebio, Cat #18-1105) in PBS according to the manufacturer's instructions. Two columns of SA sensors (Fortebio, Cat #18-5019) were hydrated in running buffer for 10 mins, one for ligand capturing and the other for reference. Antibodies were 2-fold diluted and added into a 96-well plate. […] After a 60-second baseline step, sensors were dipped into analyte and buffer wells successively, with the association and dissociation time of 180 seconds and 800 seconds, respectively. […] Signals of reference wells and reference sensors were subtracted by selecting “Double reference” before data fitting.

For test [2], the target named is T2, corticotropin-releasing hormone (CRH) peptide (human and mouse (same sequence), not fully specified).
T2 peptide: T1 peptide
The experiment in a line: cell-based or functional assay.

Positions count from the first letter of the chain named.

The source of these data is patent US20260042834A1 (HBM ALPHA THERAPEUTICS, published 2026).

B1: PR301777 (antibody, human IgG1, kappa, V domains shown)
VH: EMKLEESGGGLVQPGGSMKLSCVASGFTFSNYWMNWVRQSPEKGLEWVAEIRLKSNNYATHYAESVKGRFTISRDDSKSGVYLQMNNLGAEDTGIYYCTVGTLVYWGQGTLVTVSA
VL: DIVLTQSPASLAVSLGQRATISCRASQSVSTSTYNYMHWFQQKPGQPPKLLIKFASNLESGVPARFSGSGSGTDFTLNIHPVEEEDTATFYCQHSWEIPYTFGGGTKLEIKR
notes: Series 5; mouse variable domains with human IgG1 wildtype Fc
The molecule B1 gave a Kd in test [1] of 0.00124 nM.

B2: PR302334-27 (antibody, human IgG1, kappa, V domains shown)
VH: EVQLVESGGGLVQPGGSLRLSCAASGFTFSTYAMSWVRQAPGKGLEWVASIRSGGTTYYPDSVKGRFTISRDNSKNSLYLQMNSLRAEDTAVYYCTRGIDWGQGTTVTVSS
VL: DIQMTQSSLSASVSLGDRVTITCKASQSVNNDVAWYQQKPGKAPRLLIYYASNRYTGVPSRFSGSGSGTDFTFTISSLQPEDLATYFCQQDYSSWTFGGGTKVEIKR
notes: Humanized variant of PR302334
Regarding B2, in test [1], the dissociation constant (Kd) is < 0.001 nM, the koff was < 1e-07 s⁻¹ and the on-rate constant (kon) is 302000 M⁻¹ s⁻¹.

B3: PR302334-11 (antibody, human IgG1, kappa, V domains shown)
VH: B2 VH with S77T
VL: B2 VL with L83I, F87Y
notes: Humanized variant of PR302334
With B3, in test [1], the Kd is < 0.001 nM, the koff was < 1e-07 s⁻¹ and the association rate constant (kon) is 684000 M⁻¹ s⁻¹.

B4: PR302334-25 (antibody, human IgG1, kappa, V domains shown)
VH: B2 VH with Q13K, S74A
VL: B2 VL
notes: Humanized variant of PR302334
Take B4: in test [1], the Kd was < 0.001 nM, the koff is < 1e-07 s⁻¹ and the on-rate (kon) turned out to be 285000 M⁻¹ s⁻¹.

B5: PR302309 (antibody, human IgG1, kappa, V domains shown)
VH: QIQLVQSGPELKKPGETVKISCKASGYTFTNYGMNWVKQAPGKVLKWMGWINTYTGEPIYTDDFKGRFAFSLETSASTAYLQINNLKNEDTATYFCSRSTMITTGGVFAYWGQGTLVTVSA
VL: DVLMAQTPLSLPVSLGDQASISCRSSQTIVHSDGNTYLEWYLQKPGQSPKLLIYKVSNRFSGVPDRFSGSGSGTDFTLKISRVEAEDLGVYYCFQGSHVPWTFGGGTKLEIKR
notes: Series 7; mouse variable domains with human IgG1 wildtype Fc
In test [1], B5 gave a Kd of 0.0153 nM, a koff of 4.03e-06 s⁻¹ and an association rate constant (kon) of 263000 M⁻¹ s⁻¹.

B6: PR006669 (antibody, human IgG1, kappa, V domains shown)
VH: EVQLVESGGGLVQPGGSLRLSCAASGFTFSDNWMSWVRQAPGKGLEWVANIKQDGSENYYVDSVKGRFTISRDNAKNSLYLQMNSLRAEDTAVYYCSRGLALWGWGQGTLVTVSS
VL: DIVMTHSPLSLPVTPGDPASISCRSSQSLLHSTGYNYLDWYLQKPGQSPQLLIYLGSNRASGVPDRFSGSGSGTDFTLKFIRVEAEDVGVYYCMQALQTPYTFGQGTKLEIKR
notes: Series 2; human IgG1 wildtype Fc; also called Hybridoma Clone 52g7
In turn, B6 showed a Kd in test [1] of 0.12 nM.

B7: PR006746 (antibody, human IgG1, kappa, V domains shown)
VH: B6 VH with G55S
VL: B6 VL
notes: PTM-removal variant of PR006669
In test [1], B7 returned a Kd of 0.0751 nM, a koff of 8.69e-05 s⁻¹ and a kon of 1.16e+06 M⁻¹ s⁻¹.

B8: PR302341-43 (antibody, human IgG1, kappa, V domains shown)
VH: QVQLVQSGAEVKKPGASVKVSCKASGYTFTDYFMKWVRQAPGQGLEWMGVINPNNADIFYNQKFKGRVTMTVDKSTSTAYMELSSLRSEDTAVYYCARGTDRALFAYWGQGTLVTVSS
VL: DVVMTQTPLSSPVTLGQPASISCRSGQSIVHSDGNTYLEWYQQRPGQPPRLLIYKVSNRFSGVPDRFSGSGAGTDFTLKISRVEAEDLGVYYCFQGSHIPWTFGGGTKVEIKR
On to B8, for which, in test [2], the “hCRHR1 Luciferase Reporter Assay IC50” value is 0.512 nM and the “mCrhr1 Luciferase Reporter Assay IC50” value was 1.37 nM.

B9: PR302341-60 (antibody, human IgG1, kappa, V domains shown)
VH: B8 VH with G44R, N55Q, A56G, M70I, V72R, K74T, T76A
VL: B8 VL with T7S, S11L, G34A, P48S, A72S
With B9, in test [2], the “hCRHR1 Luciferase Reporter Assay IC50” value was 0.878 nM and the “mCrhr1 Luciferase Reporter Assay IC50” value was determined as 4.7 nM.

B10: PR302341-53 (antibody, human IgG1, kappa, V domains shown)
VH: B8 VH with N55S, A56G
VL: B8 VL with D33S
Regarding B10, in test [2], the “hCRHR1 Luciferase Reporter Assay IC50” value is 1.7 nM and the “mCrhr1 Luciferase Reporter Assay IC50” value was 5.36 nM.

B11: PR302341-58 (antibody, human IgG1, kappa, V domains shown)
VH: B8 VH with G44R, M70I, V72R, K74T, T76A
VL: B8 VL with T7S, S11L, G34A, P48S, A72S
With B11, in test [2], the “hCRHR1 Luciferase Reporter Assay IC50” value worked out at 0.571 nM and the “mCrhr1 Luciferase Reporter Assay IC50” value was 3.54 nM.

B12: PR302341-67 (antibody, human IgG1, kappa, V domains shown)
VH: B8 VH with A56G
VL: B8 VL with G34A
Regarding B12, the “hCRHR1 Luciferase Reporter Assay IC50” value in test [2] was 0.128 nM.

B13: PR302341-68 (antibody, human IgG1, kappa, V domains shown)
VH: B8 VH with A56G
VL: B8 VL with D33E
With B13, the “hCRHR1 Luciferase Reporter Assay IC50” value in test [2] was 0.418 nM.

B14: PR302341-49 (antibody, human IgG1, kappa, V domains shown)
VH: B8 VH
VL: B8 VL with D33E
With B14, in test [2], the “hCRHR1 Luciferase Reporter Assay IC50” value is 1.34 nM.

B15: PR302341-50 (antibody, human IgG1, kappa, V domains shown)
VH: B8 VH with N55S, A56G
VL: B8 VL with D33E
In the case of B15, in test [2], the “hCRHR1 Luciferase Reporter Assay IC50” value was 1.48 nM.

B16: PR302341-57 (antibody, human IgG1, kappa, V domains shown)
VH: B8 VH with G44R, N55Q, A56G, M70I, V72R, K74T, T76A
VL: B8 VL with T7S, S11L, P48S, A72S
As to B16, in test [2], the “hCRHR1 Luciferase Reporter Assay IC50” value was 0.573 nM and the “mCrhr1 Luciferase Reporter Assay IC50” value was found to be 6.48 nM.
